Laboratory results from patent publication US20250332299A1, “COMPOUND TARGETING SSTR2, PREPARATION METHOD THEREFOR AND USE THEREOF” (YANTAI LANNACHENG BIOTECHNOLOGY CO., LTD., priority 2022, published 2025).

Key:
AR42J tumor = test: MicroPET imaging in AR42J tumor-bearing mice; format: in vivo; conditions: unlabeled compound injected simultaneously with ^68Ga-DOTA-TATE, PET
Method: ^68Ga-TATE-EB-01 was prepared according to the method in Example 2. […] Results are shown in FIG. 4, FIG. 5, FIG. 6 and FIG. 7.

in vivo = test: in vivo; set-up: species or system mice; conditions: mouse, iv, 1.48 Mbq, total radioactivity
Method: Organs and tumor tissues of interest were collected and weighed. The radioactivity was detected by a γ counter, and biological distribution results were calculated as a percent of an injection dose per gram of tissue (% ID/g).

[1] = in vivo; cited from earlier work

Cc1cc(-c2ccc(NC(=O)[C@H](CCCCNC(=O)CCOCCOCCC(=O)N[C@H](Cc3ccccc3)C(=O)N[C@H]3CSSC[C@@H](C(=O)N[C@H](C(=O)O)[C@@H](C)O)NC(=O)[C@H]([C@@H](C)O)NC(=O)[C@H](CCCCN)NC(=O)[C@@H](Cc4c[nH]c5ccccc45)NC(=O)[C@H](Cc4ccc(O)cc4)NC3=O)NC(=O)CN3CCN(CC(=O)O)CCN(CC(=O)O)CCN(CC(=O)O)CC3)c(C)c2)ccc1N=Nc1ccc2c(S(=O)(=O)O)cc(S(=O)(=O)O)c(N)c2c1O (single isomer, unassigned) [TATE-EB-01]
inhibition of tumor uptake of ^68Ga-DOTA-TATE (AR42J tumor): significantly inhibit tumor uptake

Cc1cc(-c2ccc(NC(=O)[C@H](CCCCNC(=O)CCOCCOCCC(=O)N[C@H](Cc3ccccc3)C(=O)N[C@H]3CSSC[C@@H](C(=O)N[C@H](C(=O)O)[C@@H](C)O)NC(=O)[C@H]([C@@H](C)O)NC(=O)[C@H](CCCCN)NC(=O)[C@@H](Cc4c[nH]c5ccccc45)NC(=O)[C@H](Cc4ccc(O)cc4)NC3=O)NC(=O)CN3CCN(CC(=O)O)CCN(CC(=O)O)CCN(CC(=O)O)CC3)c(C)c2)ccc1N=Nc1ccc2c(S(=O)(=O)O)cc(S(=O)(=O)O)c(N)c2c1O [^177Lu-TATE-EB-01, metal not drawn]
tissue uptake at 72 h (in vivo): 158 ± 20 %ID/g
tissue uptake at 96 h (in vivo): 112 ± 20.6 %ID/g

Cc1cc(-c2ccc(NC(=O)[C@H](CCCCNC(=O)CCN3C(=O)CC(SCCC(=O)N[C@H](Cc4ccccc4)C(=O)N[C@H]4CSSC[C@@H](C(=O)N[C@H](C(=O)O)[C@@H](C)O)NC(=O)[C@H]([C@@H](C)O)NC(=O)[C@H](CCCCN)NC(=O)[C@@H](Cc5c[nH]c6ccccc56)NC(=O)[C@H](Cc5ccc(O)cc5)NC4=O)C3=O)NC(=O)CN3CCN(CC(=O)O)CCN(CC(=O)O)CCN(CC(=O)O)CC3)c(C)c2)ccc1N=Nc1ccc2c(S(=O)(=O)O)cc(S(=O)(=O)O)c(N)c2c1O (single isomer, unassigned) [^177Lu-EB-TATE, metal not drawn]
half-life in the blood [1]: 9.47 h
half-life in the blood relative to Lutathera [1]: about 4 times
